Assays:
HIV-1 X4 B-HXB2 = format: cell-based; settings: virus preincubated 1 h with hBD in 10 mM PB; GHOST cells 48 h; GFP fluorescence
Experimental: (§1) HIV-1 strains (X4 HXB2 and R5 93US142) were incubated in 10 mM PB with increasing concentrations of hBD and used to infect GHOST X4/R5 cells. (a) Qualitative determination of HIV-1 infection, measured by GFP fluorescence, in the absence (−C) and presence (+C) of virus preincubated in 10 mM PB. (b) Anti-HIV-1 activity of hBD in GHOST X4/R5 cells using fluorescence microscopy. (c) Anti-HIV-1 activity of hBD measured by RT activity in cell-free culture supernatant, relative to the positive control (i.e., HIV-1 infection in the absence of hBD). (d) Antiretroviral activity of hBD against CXCR4- and CCR5-tropic HIV-1 strains in three different environments: DMEM+10% FBS (complete medium); DMEM alone (Medium no FBS); 10 mM PB. Viruses were incubated with 20 μg/ml of each hBD for 1 h in each condition and used to infect CEM X4/R5 cells as described. Results are representative of three independent experiments.
(§2) HIV-1 isolates were incubated with increasing concentrations (5-40 μg/ml) of hBD-1, -2, and -3, in three different conditions: high salt complete medium (RPMI-1640 or DMEM supplemented with 10% fetal bovine serum, FBS); high salt medium in the absence of FBS; or low salt medium (10 mM phosphate buffer), 37° C. for 1 h. Respective mixtures were used to infect PBMC, Ghost X4/R5 or CEM X4/R5 cells at an MOI of […]. After 2 h incubation at 37° C., 5% CO2, cells were washed three times with phosphate-buffered saline (PBS) and cultured in complete medium for 48 h. In the case of Ghost X4/R5 cells, these were washed, resuspended in PBS, and analyzed by fluorescence microscopy for GFP expression as described [Morner et al.]. Cell-free supernatants from PBMC, Ghost X4/R5 and CEM X4/R5 cultures were used to monitor infectivity by the reverse transcriptase (RT) assay [Quinones-Mateu et al.]. The 50% inhibitory concentration (IC50) of each hBD was determined using X4 or R5 HIV-1 isolates. Viruses (0.01 MOI) were incubated with increasing concentrations of hBD-1, -2, and 3 (up to 40 µg/ml) in low salt medium for 1 h and used to infect CEM X4/R5 cells. After 2 h incubation at 37° C., 5% CO2, cells were washed twice with PBS and cultured in complete medium. Supernatant samples were removed on day 5 post-infection and virus production was measured using […] the RT assay [Id.]. Cytotoxicity of hBD was quantified by determining the number of viable cells using a tetrazolium-based colorimetric (MTT) assay [Pauwels et al.].
(§3) Since the antibacterial activity of beta-defensins is sensitive to high salt and serum concentrations, the anti-HIV-1 activity of hBD was initially evaluated in a low salt, serum free environment, mimicking oral mucosal conditions [Mandel et al.]. Two HIV-1 isolates (X4 B-HXB2 and R5 B-93US142) were preincubated for 1 h with increasing concentrations of recombinant hBD-1, -2, and -3, in 10 mM phosphate buffer (PB). GHOST CCR5/CXCR4 cells were then exposed to the mixtures for 48 h in complete medium. […] When CXCR4- and CCR5-tropic HIV-1 strains were preincubated with beta-defensins in high salt medium (DMEM) supplemented with 10% FBS, no antiviral effect was detected (FIG. 4d). However, preincubation in DMEM without FBS inhibited replication of X4, but not R5, HIV-1 isolates (FIG. 4d). Under low salt conditions (i.e., 10 mM PB, no FBS) the 50% inhibitory concentration for both agents against X4 and R5 viruses ranged from 9 to 19 μg/ml and 20 to 40 μg/ml, respectively.

HIV-1 R5 B-93US142 = format: cell-based; settings: virus preincubated 1 h with hBD in 10 mM PB; GHOST cells 48 h; GFP fluorescence
Experimental: as §1, §2, §3

B1: hBD-3: Recombinant human β-defensin 3 produced using an hBD-3-His tag fusion construct cloned into pET-30c; exemplary sequence SEQ ID NO:15 (protein, listed as Homo sapiens)
chain: MRIHYLLFALLFLFLVPVPGHGGIINTLQKYYCRVRGGRCAVLSCLPKEEQIGKCSTRGRKCCRRKK
modifications: not fully specified (C-terminus); ends and bridges not checked
- anti-HIV-1 activity (HIV-1 X4 B-HXB2): showed anti-HIV-1 activity
- anti-HIV-1 activity (HIV-1 R5 B-93US142): showed anti-HIV-1 activity
